Assay results: US10428342B2, “P-coumaroyl-CoA:monolignol transferase” (Wisconsin Alumni Research Foundation, priority 2011, dated 2019)
“Also recorded” adds a separate entry of the source.

What was measured:
[1] = Solubility observed in aqueous enzyme assay mixtures; format: physicochemical; settings: aqueous assay mixture, in words
Procedure: The FMT activity assay contained 100 mM MOPS pH 6.8, 1 mM dithiothreitol (DTT), 1 mM feruloyl-CoA, 1 mM coniferyl alcohol, 3.9 μg of purified FMT protein and deionized water to a volume of 50 μL. After a 30-minute incubation, 1 μL of 10 M hydrochloric acid was added to stop the reaction. Because the product synthesized in the reaction, coniferyl ferulate (CAFA), is insoluble, 50 μL of methanol was added to solubilize the CAFA. Prior to UPLC, protein and insoluble material were removed by filtering through an Amicon Ultracel 10K membrane filter (Millipore). The flow-through was analyzed using an Acquity Ultra Performance LC with an Acquity UPLC BEH C18 1.7 μm 2.1×100 mm column and the Acquity Console and Empower 2 Software, all from Waters Corporation. The solvents used in this method were solvent A, 0.1% trifluoroacetic acid, and solvent B, 100% acetonitrile. Samples were analyzed using the following gradient conditions, 13% B, for 5 minutes, 1 minute linear gradient to 42% B, held for 4 minutes, 1 minute linear gradient to 100% B, held for 1 minutes and 3 minutes at 13% B with a flow rate of 0.3 ml/minute. This method was then used to analyze a 10 μL injection of each assay reaction; standards for each of the substrates along with chemically synthesized CAFA were used to determine retention times for each compound. […]

OsPMT = biological target: T1, OsPMT (Oryza sativa subsp. japonica, UniProt Q5JNT2); experiment: OsPMT kinetic assay (CoASH release detected with DTNB at A412); format: biochemical; settings: for Substrate quality as acyl donor for OsPMT: tested acyl donors, in words
T1 construct: 6xHis (N); made in house; host or cells: E. coli BL21
T1 sequence (Q5JNT2 1-439): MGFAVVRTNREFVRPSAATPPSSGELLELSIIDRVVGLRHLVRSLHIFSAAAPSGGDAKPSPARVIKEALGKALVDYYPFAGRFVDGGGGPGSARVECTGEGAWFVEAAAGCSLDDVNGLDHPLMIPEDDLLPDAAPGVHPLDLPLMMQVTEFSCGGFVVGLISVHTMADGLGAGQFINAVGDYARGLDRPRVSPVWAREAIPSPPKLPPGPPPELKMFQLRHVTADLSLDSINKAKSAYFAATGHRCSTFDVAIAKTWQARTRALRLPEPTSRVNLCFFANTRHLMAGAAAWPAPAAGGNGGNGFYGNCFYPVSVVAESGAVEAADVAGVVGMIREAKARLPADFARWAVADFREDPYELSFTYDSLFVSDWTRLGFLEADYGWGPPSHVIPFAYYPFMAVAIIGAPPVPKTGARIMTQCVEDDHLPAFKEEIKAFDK
Procedure: (§1) Kinetics—Kinetic analyses were performed using an assay modified from Santoro et al. (Anal. Biochem. 354: 70-77 (2006)). The standard 100 μL reaction mixture contained 50 mM sodium phosphate pH 6, 2 mM 5,5′-dithiobis-(2-nitrobenzoic acid) (DTNB), 0.01-1 mM CoA thioester substrate, and 0.005-1.0 mM monolignol alcohol substrate and initiated by adding 100 ng of purified OsPMT protein in 1×BSA (NEB). The CoA thioester substrates included p-coumaroyl-CoA 2a and caffeoyl-CoA 2b, and the monolignol substrates included sinapyl alcohol 1S and p-coumaryl alcohol 1H. Enzyme activity was measured as an increase in CoASH, detected with DTNB at A412, which is released as a result of monolignol conjugate synthesis (id.). The absorbance was measured every three min. for 40 min on a Spectramax Plus microplate reader using Softmax Pro 5.3 (Molecular Devices). The reactions were stopped by adding hydrochloric acid to a concentration of 100 mM, and then solubilized by adding methanol to 50%. Aliquots of 10 μL from each assay were analyzed via UPLC to verify product production. A standard curve was created for each CoA thioester from triplicate assays of five concentrations from 50 nM to 1 mM of coenzyme-A. Each reaction contained the same buffer and DTNB concentrations as the kinetic assays, along with 0.5 mM of a CoA thioester (p-coumaroyl-CoA 2a, caffeoyl-CoA 2b, or feruloyl-CoA 2c). The equation derived from fitting this standard curve was used to calculate the quantity (moles) of product synthesized in the assay. Kinetic parameters, Vmax and Km, were calculated using a nonlinear regression by entering the reaction rate and substrate concentration into the program R64, version 2.12.0 (Team, R. D. C., R: A language and environment for statistical computing, R Foundation for Statistical Computing, Vienna, Austria (2010).

[2] = tested on: feruloyl-CoA:monolignol transferase (FMT); experiment: FMT enzymatic assay (UPLC detection of product); format: biochemical, Angelica sinensis; settings: for Product formed by FMT from CoA thioester: CoA thioester as acyl donor, coniferyl alcohol as acceptor; for FMT activity with monolignol: monolignol as acyl acceptor, feruloyl-CoA as donor
Procedure: The FMT activity assay contained 100 mM MOPS pH 6.8, 1 mM dithiothreitol (DTT), 1 mM feruloyl-CoA, 1 mM coniferyl alcohol, 3.9 μg of purified FMT protein and deionized water to a volume of 50 μL. After a 30-minute incubation, 1 μL of 10 M hydrochloric acid was added to stop the reaction. Because the product synthesized in the reaction, coniferyl ferulate (CAFA), is insoluble, 50 μL of methanol was added to solubilize the CAFA. Prior to UPLC, protein and insoluble material were removed by filtering through an Amicon Ultracel 10K membrane filter (Millipore). The flow-through was analyzed using an Acquity Ultra Performance LC with an Acquity UPLC BEH C18 1.7 μm 2.1×100 mm column and the Acquity Console and Empower 2 Software, all from Waters Corporation. The solvents used in this method were solvent A, 0.1% trifluoroacetic acid, and solvent B, 100% acetonitrile. Samples were analyzed using the following gradient conditions, 13% B, for 5 minutes, 1 minute linear gradient to 42% B, held for 4 minutes, 1 minute linear gradient to 100% B, held for 1 minutes and 3 minutes at 13% B with a flow rate of 0.3 ml/minute. This method was then used to analyze a 10 μL injection of each assay reaction; standards for each of the substrates along with chemically synthesized CAFA were used to determine retention times for each compound. Purified recombinant enzyme was assayed for FMT activity using a reaction mixture containing 2 mM coniferyl alcohol, […], 100 mM HEPES pH 7.4 and 1 mM DTT. The second most abundant BAHD acyltransferase gene when incubated with Coniferyl alcohol and feruloyl-CoA produced a compound with the retention time of authentic coniferyl ferulate (CAFA) (FIG. 2). […] The addition of methanol to 50% after stopping the enzyme with acid was required to analyze the product by UPLC. The insolubility of the product made partial purification easy as the product was separated from the substrates by centrifugation.

[3] = substrate: OC/C=C/c1ccc(O)cc1; experiment: OsPMT kinetic assay (CoASH release detected with DTNB at A412); format: biochemical, Oryza sativa; settings: other: varying substrate, pH 6.0
Procedure: as §1

[4] = substrate: CC(C)(COP(=O)(O)OP(=O)(O)OC[C@H]1O[C@@H](n2cnc3c(N)ncnc32)[C@H](O)[C@@H]1OP(=O)(O)O)[C@@H](O)C(=O)NCCC(=O)NCCSC(=O)/C=C/c1ccc(O)c(O)c1; experiment: as above; format: biochemical, Oryza sativa; settings: other: varying substrate, pH 6.0
Procedure: as §1

[5] = substrate: CC(C)(COP(=O)(O)OP(=O)(O)OC[C@H]1O[C@@H](n2cnc3c(N)ncnc32)[C@H](O)[C@@H]1OP(=O)(O)O)[C@@H](O)C(=O)NCCC(=O)NCCSC(=O)/C=C/c1ccc(O)cc1; experiment: as above; format: biochemical, Oryza sativa; settings: other: varying substrate, pH 6.0
Procedure: as §1

[6] = substrate: COc1cc(/C=C/CO)cc(OC)c1O; experiment: as above; format: biochemical, Oryza sativa; settings: other: varying substrate, pH 6.0
Procedure: as §1

[7] = saturating substrate caffeoyl-CoA 2b
[8] = saturating substrate p-coumaroyl-CoA 2a
[9] = saturating substrate p-coumaryl alcohol 1H
[10] = saturating substrate sinapyl alcohol 1S

Molecule: OC/C=C/c1ccc(O)c(O)c1 [caffeyl alcohol 1C, caffeyl alcohol]
- Solubility [1]: limited solubility

Molecule: CC(C)(COP(=O)(O)OP(=O)(O)OC[C@H]1O[C@@H](n2cnc3c(N)ncnc32)[C@H](O)[C@@H]1OP(=O)(O)O)[C@@H](O)C(=O)NCCC(=O)NCCSC(=O)/C=C/c1ccc(O)cc1 [p-coumaroyl-CoA 2a, p-coumaroyl-CoA]
- Maximum reaction rate relative to caffeoyl-CoA 2b (OsPMT; acyl donor compared with caffeoyl-CoA 2b): at least 5 fold
- Substrate quality as acyl donor for OsPMT (OsPMT): good substrates
- Product formed by FMT from CoA thioester [2]: very little product

Molecule: COc1cc(/C=C/C(=O)SCCNC(=O)CCNC(=O)[C@H](O)C(C)(C)COP(=O)(O)OP(=O)(O)OC[C@H]2O[C@@H](n3cnc4c(N)ncnc43)[C@H](O)[C@@H]2OP(=O)(O)O)ccc1O [feruloyl-CoA 2c, feruloyl-CoA]
- Substrate quality as acyl donor for OsPMT (OsPMT): poor substrate
- Product formed by FMT from CoA thioester [2]: substantial product

Molecule: COc1cc(/C=C/CO)cc(OC)c1O [sinapyl alcohol 1S, sinapyl alcohol]
- FMT activity with monolignol [2]: active

Molecule: OC/C=C/c1ccc(O)cc1 [p-coumaryl alcohol 1H, p-coumaryl alcohol]
- Synthetic rate relative to sinapyl alcohol 1S (OsPMT; acyl acceptor compared with sinapyl alcohol 1S): 6 times
- FMT activity with monolignol [2]: active

Molecule: COc1cc(/C=C/COC(=O)/C=C/c2ccc(O)c(OC)c2)ccc1O [coniferyl ferulate]
- Solubility [1]: mostly insoluble in water; also recorded: partially insoluble

Molecule: COc1cc(/C=C/CO)ccc1O [coniferyl alcohol 1G, coniferyl alcohol]
- FMT activity with monolignol [2]: active

Molecule: CC(C)(COP(=O)(O)OP(=O)(O)OC[C@H]1O[C@@H](n2cnc3c(N)ncnc32)[C@H](O)[C@@H]1OP(=O)(O)O)[C@@H](O)C(=O)NCCC(=O)NCCSC(=O)/C=C/c1ccc(O)c(O)c1 [caffeoyl-CoA 2b, caffeoyl-CoA]
- Substrate quality as acyl donor for OsPMT (OsPMT): good substrates
- Product formed by FMT from CoA thioester [2]: very little product

B1: OsPMT (Oryza sativa Japonica Group) (protein)
chain: MGFAVVRTNREFVRPSAATPPSSGELLELSIIDRVVGLRHLVRSLHIFSAAAPSGGDAKPSPARVIKEALGKALVDYYPFAGRFVDGGGGPGSARVECTGEGAWFVEAAAGCSLDDVNGLDHPLMIPEDDLLPDAAPGVHPLDLPLMMQVTEFSCGGFVVGLISVHTMADGLGAGQFINAVGDYARGLDRPRVSPVWAREAIPSPPKLPPGPPPELKMFQLRHVTADLSLDSINKAKSAYFAATGHRCSTFDVAIAKTWQARTRALRLPEPTSRVNLCFFANTRHLMAGAAAWPAPAAGGNGGNGFYGNCFYPVSVVAESGAVEAADVAGVVGMIREAKARLPADFARWAVADFREDPYELSFTYDSLFVSDWTRLGFLEADYGWGPPSHVIPFAYYPFMAVAIIGAPPVPKTGARIMTQCVEDDHLPAFKEEIKAFDK
notes: 6xHis (N); made in house; host or cells: E. coli BL21
- Km [3, 7]: 27 ± 6 µM
- Vmax [3, 7]: 0.355 µmol/min/mg
- kcat [3, 7]: 0.28 s⁻¹
- Km [3, 8]: 141 ± 14 µM
- Vmax [3, 8]: 3.25 µmol/min/mg
- kcat [3, 8]: 2.58 s⁻¹
- Km [4, 9]: 92 ± 11 µM
- Vmax [4, 9]: 0.515 µmol/min/mg
- kcat [4, 9]: 0.41 s⁻¹
- Km [4, 10]: 75 ± 5 µM
- Vmax [4, 10]: 0.45 µmol/min/mg
- kcat [4, 10]: 0.36 s⁻¹
- Km [5, 9]: 281 ± 62 µM
- Vmax [5, 9]: 3.69 µmol/min/mg
- kcat [5, 9]: 2.93 s⁻¹
- Km [5, 10]: 105 ± 12 µM
- Vmax [5, 10]: 0.75 µmol/min/mg
- kcat [5, 10]: 0.6 s⁻¹
- Km [6, 7]: 15 ± 2 µM
- Vmax [6, 7]: 0.486 µmol/min/mg
- kcat [6, 7]: 0.39 s⁻¹
- Km [6, 8]: 35 ± 5 µM
- Vmax [6, 8]: 0.648 µmol/min/mg
- kcat [6, 8]: 0.51 s⁻¹
